Source: paper PMC12151148 (2024)

Assays:
Insc (18–66) = biological target: T1, Insc (18–66) (mouse, UniProt Q3HNM7 18-66); assay: ITC
T1 chain: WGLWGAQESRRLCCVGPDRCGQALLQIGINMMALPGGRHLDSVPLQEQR

NuMA (1886–1912) = biological target: T2, NuMA (1886–1912) (human, UniProt Q14980-2 1886-1912); assay: ITC
T2 chain: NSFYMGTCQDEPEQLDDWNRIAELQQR

Kd (Insc (18–66)): 980 nM | Kd (NuMA (1886–1912)): 630 nM
B1: LGN-TPR (1–409) (domain or fragment)
chain: MREDHSFHVRYRMEASCLELALEGERLCKSGDCRAGVSFFEAAVQVGTEDLKTLSAIYSQLGNAYFYLHDYAKALEYHHHDLTLARTIGDQLGEAKASGNLGNTLKVLGNFDEAIVCCQRHLDISRELNDKVGEARALYNLGNVYHAKGKSFGCPGPQDTGEFPEDVRNALQAAVDLYEENLSLVTALGDRAAQGRAFGNLGNTHYLLGNFRDAVIAHEQRLLIAKEFGDKAAERRAYSNLGNAYIFLGEFETASEYYKKTLLLARQLKDRAVEAQSCYSLGNTYTLLQDYEKAIDYHLKHLAIAQELKDRIGEGRACWSLGNAYTALGNHDQAMHFAEKHLEISREVGDKSGELTARLNLSDLQMVLGLSYSTNNSMMSENIEIDGSLHGAGAKLGRRHSMENLELMK
